{
  "source": "patent US20140178384A1",
  "about": "(INSTITUT PASTEUR, published 2014)",
  "binders": {"B1": {"name": "peroxynitrite-treated NGF (mouse NGF nitrated by peroxynitrite) (ligand)", "chain": "SSTHPVFHMGEFSVCDSVSVWVGDKTTATDIKGKEVTVLAEVNINNSVFRQYFFETKCRASNPVESGCRGIDSKHWNSYCTTTHTFVKALTTDEKQAAWRFIRIDTACVCVLSRKATR", "modifications": "nitro groups on Tyr52 and Trp99 (the species identified by mass spectrometry); up to five nitro groups and methionine oxidation suggested"}},
  "biological_target": "T1, p75 neurotrophin receptor on rat embryonic motor neurons (rat, UniProt P07174 30-425)",
  "T1 sequence (looked up)": "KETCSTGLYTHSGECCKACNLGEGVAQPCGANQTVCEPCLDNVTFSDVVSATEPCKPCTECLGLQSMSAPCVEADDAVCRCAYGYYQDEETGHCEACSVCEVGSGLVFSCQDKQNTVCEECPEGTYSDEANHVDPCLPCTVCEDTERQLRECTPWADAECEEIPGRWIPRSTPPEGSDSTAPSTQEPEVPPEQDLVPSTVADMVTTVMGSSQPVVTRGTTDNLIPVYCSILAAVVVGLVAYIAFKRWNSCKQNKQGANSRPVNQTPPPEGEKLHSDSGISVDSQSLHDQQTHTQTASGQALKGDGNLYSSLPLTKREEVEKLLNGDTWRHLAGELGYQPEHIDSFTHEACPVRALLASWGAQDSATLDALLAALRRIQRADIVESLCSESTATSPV",
  "assay": "cell-based or functional assay",
  "data": [
    {"binder": "B1", "values": [
      {"measurement": "fold increase of apoptotic activity against native NGF", "value": 10000, "unit": "fold"}
    ]}
  ]
}
